Laboratory results: patent US20230220073A1 (UCL BUSINESS, published 2023)
Where a chain is given by its changes, count along the chain named.

B1: Clone O chimeric ROR1 antibody (antibody, V domains shown)
VH: QVRLLQSGAALVKPGASVKMSCKASGYTFTDYWMSWVKQSHGKSLEWIGEIYPNSGATNFNEKFKDKATLTVDRSTSTAYMELSRLTSEDSAIYYCARGFPNNYLSWFAYWGQGTLVTVSS
VL: DIVLTQSPALAVSLEQRVTIACKTSQNVDNHGISYMHWYQQKSGQEPKLLIYEGSNLAVGIPARFSGSGSGTDFTLTIDPVEADDIETYYCQQSKDDPRTFGGGTKLELK
B2: Clone B chimeric ROR1 antibody (antibody, V domains shown)
VH: DVQLEESGGGLVRPGRSLKLSCADSGVNFSNRGMAWVRQAPTKGLEWVATISYDGRIIYYRDSVKGRFSISRENAKSTLYLQMDSLRSEDTATYYCARHPIAADWYFDFWGPGTMVTVSS
VL: DIRMTQSPASLSASLGETVTIECLTSEDIYSDLAWFQQKPGKSPQLLIYDANSLQNGVPSRFGGCGSGTQYSLQISSLQSEDVATYFCQQYKNYPPTFGGGTKLVLK
notes: also called B5
B3: Clone J chimeric ROR1 antibody (antibody, V domains shown)
VH: DVKLVESGGGLLKPGGSLKLSCVASGFSFSKYWMHWVRQAPGQGLEWIAEIEYDGTETNYAPSIKDRFTISRDNAKNTLYLQMSNVRFEDAATYFCTTEEMHTTDYYYGFAYWGQGTLVTVSS
VL: DIVLTQSPALAVSVGQRATISCRASQSVSISRYDFMHWYQQKPGQQPKLLIYRASNLASGIPARFSGSGSGTDFTLTINPVQADDIATYYCQQNRESPRTFGGGTKLELK
notes: also called J6
B4: Clone E7 chimeric ROR1 antibody (antibody, V domains shown)
VH: GKLVESGGGLLKPGGSLKLSCVASGFTFDKYWMHWVRQAPGKGLEWIAEIEYDGTETNYAPSIKDRFTISRDNAKNTLYLQMSNVRSEDAATYFCTTEEMYTTDYYYGFAYWGQGTLVTVSS
VL: B3 VL with D34N
B5: Clone I chimeric ROR1 antibody (antibody, V domains shown)
VH: EVQLVESGGGSVQPGRSLKLSCAASGFTFSDYNMAWVRQAPKKGPEWVATITYDVHNAYYRDSVKGRFTISRDDAKSTLYLQMDSLRSEDTATYFCARPGAYWGQGTLVTVSS
VL: DIQLTQSPSSMSASLGDRVSLTCQSSQGIGKYLSWYQHKPGKPPKAMIYYATKLADGVPSRFSGSRSGSDFSLTISSLESEDIAIYYCLQFDDYPWTFGGGTKLELK
B6: Clone Pi chimeric ROR1 antibody (antibody, V domains shown)
VH: EVQLVESGGGLVQPGRSLTLSCSASGFTFRDYNMAWVRQAPRKGLEWVATISFDDYNTYYRDSVKGRFTISRDDAKSTLYLQMDSLRSEDTATYYCARPGTYWGQGTLVTVSS
VL: DIQLTQSPSSLSASLGDRVSLTCQSSQGIGKYLSWFQHKPGKPPKPVINYATNLADGVPSRFSGRRSGSDFSLTISSLESEDTAIYYCLQFDDFRWTVGGGTKLELK

biological target: T1, Histidine-tagged ROR1 protein (extracellular region) (UniProt Q01973 30-406); assay: SPR, Biacore X100; antibody captured by anti-human IgG1 on CM5 chip, His-tagged ROR1 extracellular portion injected at 1.5-100 nM
T1 construct: extracellular domain; also called extracellular portion of ROR1 bearing a Histidine tag; not shown: Histidine tag
T1 sequence (Q01973 30-406): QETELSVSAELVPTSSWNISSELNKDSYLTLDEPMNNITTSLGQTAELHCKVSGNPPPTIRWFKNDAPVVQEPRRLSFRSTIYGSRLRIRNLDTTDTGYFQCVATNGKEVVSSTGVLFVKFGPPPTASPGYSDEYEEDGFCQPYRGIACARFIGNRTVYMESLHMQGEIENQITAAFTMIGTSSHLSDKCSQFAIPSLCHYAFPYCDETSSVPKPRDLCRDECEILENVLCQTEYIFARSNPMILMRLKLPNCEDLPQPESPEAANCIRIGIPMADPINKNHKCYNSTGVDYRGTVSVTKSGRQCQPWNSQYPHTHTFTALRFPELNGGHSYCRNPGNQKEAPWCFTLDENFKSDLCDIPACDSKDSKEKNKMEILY
Experimental: FIG. 3: KD determination by surface plasmon resonance. Sensorgrams obtained using a Biacore X100 instrument are shown. Briefly, ROR1 antibodies were immobilized using a CM5 chip and seven different concentrations of the Histidine-tagged ROR1 protein (extracellular region) were injected. Concentrations ranged from […].
We undertook surface plasmon resonance evaluation using a Biacore X100 instrument. ROR1 chimeric antibodies were immobilised using an anti-human IgG1 antibody capture kit and a CM5 sensor chip. Seven different concentrations, ranging from 1.5-100 nM, of the extracellular portion of ROR1 bearing a Histidine tag were then injected.

Row | Kd | koff | kon | Binder
1 | 3.5 nM | 0.000607 s⁻¹ | 174000 M⁻¹ s⁻¹ | B1
2 | 1.5 nM | 0.000698 s⁻¹ | 464000 M⁻¹ s⁻¹ | B2
3 | 3.35 nM | 0.000835 s⁻¹ | 249000 M⁻¹ s⁻¹ | B3
4 | 2.04 nM | 0.000849 s⁻¹ | 417000 M⁻¹ s⁻¹ | B4
5 | 2.44 nM | 0.00051 s⁻¹ | 209000 M⁻¹ s⁻¹ | B5
6 | 1.98 nM | 0.000349 s⁻¹ | 176000 M⁻¹ s⁻¹ | B6

biological target: T2, Fz+Kg (human, UniProt Q01973); assay: flow cytometry, transduced SUP-T1 cells, anti-human Fc-Dylight647
T2 construct: also called ROR1 Frizzled+Kringle domains, on transduced SUP-T1 cells
T2 sequence (Q01973 165-391 limits assumed): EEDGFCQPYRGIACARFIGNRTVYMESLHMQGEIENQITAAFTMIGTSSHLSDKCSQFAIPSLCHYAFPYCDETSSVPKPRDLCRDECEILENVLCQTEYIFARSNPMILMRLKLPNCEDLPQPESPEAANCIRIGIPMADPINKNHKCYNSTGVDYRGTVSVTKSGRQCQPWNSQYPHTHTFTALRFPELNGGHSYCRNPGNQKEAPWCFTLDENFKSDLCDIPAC
Experimental: (§1) FIG. 1A-FIG. 1C: Identification of ROR1 binding domain: FIG. 1A: SUP-T1 cells were transduced with retroviral vectors containing either the full extracellular portion of ROR1 or only one or two extracellular domains. Non-transduced SUP-T1 (SUP-T1 NT) cells served as negative control. FIG. 1B: All 12 chimeric antibodies and FIG. 1C all 10 positive clones in scFv format were incubated with SUP-T1 NT and the new stable cell lines at 4° C. for 30 min. Cells were washed and stained with a secondary antibody (anti-human Fc-Dylight647), which was used as negative control. eROR1=extracellular ROR1, Ig-like=Immunoglobulin-like domain, Fz=Frizzled domain, Kg=Kringle domain.

Row | binding result | Binder
7 | no binding | B1
8 | no binding | B2
9 | no binding | B3
10 | no binding | B4
11 | no binding | B5
12 | no binding | B6

biological target: T3, ROR1 Frizzled domain alone, on transduced SUP-T1 cells (human, UniProt Q01973 165-299); assay: as above
T3 construct: domain: Fz; also called Fz; ROR1-Fz domain
T3 sequence (Q01973 165-299): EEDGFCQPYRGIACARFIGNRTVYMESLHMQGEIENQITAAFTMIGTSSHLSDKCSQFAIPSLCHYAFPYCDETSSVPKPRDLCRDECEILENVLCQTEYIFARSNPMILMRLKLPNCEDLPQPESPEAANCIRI
Experimental: as §1

Row | binding result | Binder
13 | no binding | B1
14 | no binding | B2
15 | no binding | B3
16 | no binding | B4
17 | no binding | B5
18 | no binding | B6

biological target: T4, Kringle (Kg) (human, UniProt Q01973); assay: as above
T4 construct: also called ROR1 Kringle domain alone, on transduced SUP-T1 cells
T4 sequence (Q01973 312-391 limits assumed): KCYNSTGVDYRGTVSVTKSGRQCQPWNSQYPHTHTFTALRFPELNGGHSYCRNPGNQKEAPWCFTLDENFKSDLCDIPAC
Experimental: as §1

Row | binding result | Binder
19 | no binding | B1
20 | no binding | B2
21 | no binding | B3
22 | no binding | B4
23 | no binding | B5
24 | no binding | B6
